Assay results published in patent publication US20210340257A1.

Assays:
[1] = molecular target: human B7-H3 (CD276), on cells (human) (UniProt Q5ZPR3); assay: flow chamber attachment of microbubbles to MS1hB7-H3 cells under shear
[2] = molecular target: human B7-H3 (CD276), on cells (human) (UniProt Q5ZPR3); assay: parallel-plate flow chamber attachment of microbubbles to MS1 B7-H3+ cells under shear
[3] = molecular target: mouse B7-H3, on cells (mouse) (UniProt Q8VE98); assay: cell-based or functional assay
Sequence of mouse B7-H3, on cells (mouse) (Q8VE98 29-316): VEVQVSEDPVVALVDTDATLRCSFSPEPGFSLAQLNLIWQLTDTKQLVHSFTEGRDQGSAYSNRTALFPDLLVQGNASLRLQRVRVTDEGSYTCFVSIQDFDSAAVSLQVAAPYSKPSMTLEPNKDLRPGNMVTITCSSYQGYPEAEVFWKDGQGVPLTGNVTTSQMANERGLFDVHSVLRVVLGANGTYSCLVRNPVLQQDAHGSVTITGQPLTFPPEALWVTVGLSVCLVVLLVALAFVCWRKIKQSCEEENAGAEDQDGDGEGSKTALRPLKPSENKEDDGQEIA

[4] = molecular target: human B7-H3 (CD276), on cells (human) (UniProt Q5ZPR3); assay: cell-based or functional assay
[5] = molecular target: recombinant soluble human B7-H3 ectodomain protein (human) (UniProt Q5ZPR3); assay: flow cytometry; antibody on streptavidin magnetic beads, 3 µM soluble B7-H3, detected with APC anti-B7-H3 antibody
[6] = molecular target: recombinant soluble human B7-H3 ectodomain protein (human) (UniProt Q5ZPR3); assay: flow cytometry; unconjugated streptavidin magnetic beads, 3 µM soluble B7-H3, detected with APC anti-B7-H3 antibody

Sequence of human B7-H3 (CD276), on cells (human) (Q5ZPR3 29-534): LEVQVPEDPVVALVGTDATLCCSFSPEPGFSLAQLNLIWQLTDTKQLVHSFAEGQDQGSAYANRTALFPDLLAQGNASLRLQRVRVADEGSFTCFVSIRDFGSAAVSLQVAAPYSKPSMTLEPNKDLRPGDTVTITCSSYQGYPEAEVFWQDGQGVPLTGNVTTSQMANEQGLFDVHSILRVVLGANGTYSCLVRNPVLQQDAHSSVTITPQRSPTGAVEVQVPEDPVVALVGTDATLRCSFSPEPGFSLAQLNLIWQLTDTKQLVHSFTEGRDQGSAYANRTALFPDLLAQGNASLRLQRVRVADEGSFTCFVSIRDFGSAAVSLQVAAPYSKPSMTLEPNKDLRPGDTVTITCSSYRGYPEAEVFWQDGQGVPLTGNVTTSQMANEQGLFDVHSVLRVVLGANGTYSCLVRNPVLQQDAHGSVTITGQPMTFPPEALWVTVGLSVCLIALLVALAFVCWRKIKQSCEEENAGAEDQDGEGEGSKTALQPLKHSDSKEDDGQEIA

Substance	microbubbles attached per cell [1] [MB/cell]	microbubbles attached per cell [2] [MB/cell]	US molecular imaging signal, mammary tumors of MMTV-PyMT transgenic mice [3] [a.u.]	in vivo ultrasound molecular imaging signal of tumors (transgenic mouse model) [3] [a.u.]	targeted imaging signal in transgenic mice with breast tumors [3] [a.u.]	US molecular imaging signal, orthotopic MDA-MB-231 tumors co-implanted with MS1hB7-H3 cells [4] [a.u.]	% binding [5] [%]	% binding [6] [%]
MBNon-targeted (unconjugated streptavidin-coated microbubbles) (from UniProt P22629 37-163)	0.5	0.5						
biotinylated anti-B7-H3 antibody (eBiosciences, clone M3.2D7)	9.8	9.79	7.2	4.82	6.22	8.2	81	
unconjugated streptavidin magnetic beads (from UniProt P22629 37-163)								1
